Test results as given in patent US20200325237A1.

What was measured:
[1] = target: TfR2 (transferrin receptor 2) (UniProt Q9UP52); test: A450 plate assay on TfR2 (method not described in the text)
[2] = target: hTfR (human transferrin receptor, source and construct not stated) (human) (UniProt P02786); test: ELISA; ratio of the Kd on HFE-captured hTfR to the Kd on directly coated hTfR
[3] = target: hTfR (human transferrin receptor, source and construct not stated) (human) (UniProt P02786); test: ELISA; ratio of the Kd on transferrin-captured hTfR to the Kd on directly coated hTfR
[4] = target: hTfR (human transferrin receptor, source and construct not stated) (human) (UniProt P02786); test: ELISA, biotinylated antibody on hTfR captured by plate-coated HFE (HFE+TfR); fit: specific binding with Hill slope
[5] = target: hTfR (human transferrin receptor, source and construct not stated) (human) (UniProt P02786); test: ELISA, biotinylated antibody on hTfR captured by plate-coated human holo-transferrin (Tf+TfR); fit: specific binding with Hill slope

hTfR (human transferrin receptor, source and construct not stated) (human), sequence (P02786 89-760 limits assumed): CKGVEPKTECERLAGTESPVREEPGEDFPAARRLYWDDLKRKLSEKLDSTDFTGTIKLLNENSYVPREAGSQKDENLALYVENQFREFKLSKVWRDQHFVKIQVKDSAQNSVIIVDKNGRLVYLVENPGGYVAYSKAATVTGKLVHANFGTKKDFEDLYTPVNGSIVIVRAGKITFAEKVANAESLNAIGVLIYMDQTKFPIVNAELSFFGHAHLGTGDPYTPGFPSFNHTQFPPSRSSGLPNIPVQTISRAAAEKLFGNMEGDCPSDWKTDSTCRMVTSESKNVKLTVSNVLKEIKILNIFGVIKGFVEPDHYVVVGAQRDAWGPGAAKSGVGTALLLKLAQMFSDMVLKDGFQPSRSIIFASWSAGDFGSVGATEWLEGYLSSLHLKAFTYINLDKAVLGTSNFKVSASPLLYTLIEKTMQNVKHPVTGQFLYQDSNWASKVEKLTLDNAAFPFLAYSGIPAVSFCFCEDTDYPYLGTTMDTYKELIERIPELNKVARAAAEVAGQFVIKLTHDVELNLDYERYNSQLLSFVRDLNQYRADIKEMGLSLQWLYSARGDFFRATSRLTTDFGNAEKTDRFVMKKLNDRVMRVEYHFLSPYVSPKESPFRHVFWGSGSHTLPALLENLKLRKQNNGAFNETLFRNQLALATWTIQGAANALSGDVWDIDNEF
TfR2 (transferrin receptor 2), sequence (Q9UP52 105-801 limits assumed): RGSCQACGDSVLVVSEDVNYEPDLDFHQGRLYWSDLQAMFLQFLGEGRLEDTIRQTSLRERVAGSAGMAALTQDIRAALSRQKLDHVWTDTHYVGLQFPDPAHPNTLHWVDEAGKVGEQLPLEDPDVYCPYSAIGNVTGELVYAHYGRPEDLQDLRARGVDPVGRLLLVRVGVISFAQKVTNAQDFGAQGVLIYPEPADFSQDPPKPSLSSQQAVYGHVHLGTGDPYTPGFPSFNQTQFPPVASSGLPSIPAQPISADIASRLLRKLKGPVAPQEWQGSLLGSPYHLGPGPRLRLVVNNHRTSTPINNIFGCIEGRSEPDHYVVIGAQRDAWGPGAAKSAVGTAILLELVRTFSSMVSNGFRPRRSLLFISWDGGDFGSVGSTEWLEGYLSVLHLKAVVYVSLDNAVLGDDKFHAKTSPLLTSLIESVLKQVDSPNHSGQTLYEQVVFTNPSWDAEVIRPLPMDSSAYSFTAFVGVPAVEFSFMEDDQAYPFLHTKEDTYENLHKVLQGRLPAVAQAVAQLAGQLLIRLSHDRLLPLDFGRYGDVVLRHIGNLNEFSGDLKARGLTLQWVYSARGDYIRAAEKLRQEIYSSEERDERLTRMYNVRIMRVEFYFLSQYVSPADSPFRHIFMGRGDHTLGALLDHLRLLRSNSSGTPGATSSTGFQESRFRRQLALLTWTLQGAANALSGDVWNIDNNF

Row | Substance | EC50 (read off the curve) [1] [nM] | Kd(HFE+TfR)/Kd(TfR) [2] | Kd(Tf+TfR)/Kd(TfR) [3] | Bmax [4] [A450] | Kd [4] [nM] | h [4] | Bmax [5] [A450] | Kd [5] [nM] | h [5]
1 | TfR2 Ab B-6 (antibody) | 0.3 | – | – | – | – | – | – | – | –
2 | blocking AF2474 (antibody) | – | 688 | 51.8 | 5.7 | 28.9 | 0.8 | 4.26 | 2.18 | 1.12
